# Test results from patent US20210187071A1, “COMPOSITIONS COMPRISING MDA-7/IL-24 PROTEIN AND METHODS OF USE” (VIRGINIA COMMONWEALTH UNIVERSITY, priority 2017, published 2021).
# Entries after “also recorded” stand apart in the source; their conditions may differ. Read-outs that look alike come from different tables or passages of the source.
# B1: MDA-7/IL-24 protein: Recombinant His-tagged MDA-7/IL-24 protein purified on Ni-NTA from supernatant of IM-PHFA cells infected with Ad.5-His-mda-7 (protein)
# chain: QEFHFGPCQVKGVVPQKLWEAFWAVKDTMQAQDNITSARLLQQEVLQNVSDAESCYLVHTLLEFYLKTVFKNYHNRTVEVRTLKSFSTLANNFVLIVSQLQPSQENEMFSIRDSAHRRFLLFRRAFKQLDVEAALTKALGEVDILLTWMQKFYKL
# Columns and labels:
# PC3-ML cells [1] = experiment: MTT cell proliferation assay in PC3-ML cells; format: cell-based; conditions: PC3-ML cells treated with MDA-7/IL-24 protein
# Protocol: Purification of Recombinant His-MDA-7 Protein: IM-PHFA cells were infected with Ad.5-His-mda-7 using a published protocol (24). Cell supernatant was mixed with Ni-NTA (a nickel-nitrilotriacetic) acid slurry to allow binding of MDA-7/IL-24 to the Ni-NTA beads. Twenty-four hours after incubation, the Ni-NTA beads were collected, washed, and the purified MDA-7/IL-24 protein was eluted in imidazole buffer. The protein was validated by western blotting using anti-MDA-7 antibody (Genhunter Corporation, Nashville, Tenn., USA). Biological activity was checked in PC3-ML cells by MTT assay (25).
# MTT Cell Proliferation and Clonal Assays: Cell proliferation assays were done as described previously (25). Briefly, 2,000 cells were seeded in each well of a 96-well plate and allowed to attach overnight. Cells were treated with complete media in the presence or absence of different concentrations of MDA-7/IL-24 protein. At appropriate time points, cells were further incubated with MTT (3-(4, 5-di methyl thiazol-2-yl)-2, 5 diphenyl tetrazolium bromide) reagents. Finally, DMSO was applied to dissolve the blue salt and the OD was measured at 560 nm (25). For determining long-term effects, colony formation (cloning) assays were performed as described earlier (26). Briefly, 200 cells were plated and allowed to grow in the presence or absence of MDA-7/IL-24 for an additional 15 days. […]
# p27, GRP78, and Beclin-1 = experiment: Western blotting of downstream MDA-7/IL-24 signaling molecules in PC3-ML cells; format: cell-based; conditions: western blot, vs untreated control
# Source text: (§1) Western Blotting: Standard protocols were followed for Western blotting assays (24, 27). The primary antibodies used were pAkt, Akt, pGSK3β, GSK3β, NFATc1, cyclin D1 (Cell Signaling Technology, Danvers, Mass., USA) and EF1α (Abeam, Cambridge, United Kingdom). Appropriate secondary antibodies were purchased from Sigma-Aldrich, Inc. St. Louis, Mo., USA).
# After purification, the quality of the purified protein was confirmed using anti-MDA-7 antibody by western blotting (FIG. 1B). To confirm biological activity, PC3-ML cells were treated with MDA-7/IL-24 protein, and anti-proliferative and potential molecular changes were evaluated by MTT assays and western blotting analyses, respectively (FIGS. 1C and 1D). […] Next, to evaluate the long-term effect of MDA-7/IL-24 on cell proliferation, colony formation (clonal) assays were performed in an assortment of PC cell lines.
# PC3-ML cells [2] = conditions: for bone metastasis (BLI signal / luciferase intensity): MDA-7/IL-24 protein 5 mg/kg tail vein, 6 doses over three weeks, vs untreated control; for survival: MDA-7/IL-24 protein 5 mg/kg, 6 doses; for toxicity in animals: delivered repeatedly systemically in mice
# Protocol: In vivo Metastasis Studies: All animal studies were approved by the Institutional Animal Care and Use Committee (Virginia Commonwealth University). For experimental bone metastasis assays, 6-8-week-old male athymic nude mice (purchased from Harlan, USA) were injected with 1×10^5 PC3-ML cells stably expressing firefly luciferase gene through an intracardiac route. For determining the therapeutic activity of MDA-7/IL-24 protein, mice received an intravenous injection of recombinant protein (5 mg/kg), one day after implantation of cells. Animals were treated with therapeutics for a total of 6 times (2× a week for first 3 weeks). […] Image of the bone region was monitored by a BLI (bioluminescence imaging) method using an IVIS® imaging system (15, 19, 20).
# In this model, stable luciferase expressing PC3-ML cells were injected in male athymic nude mice through an intracardiac route to produce bone metastases. The expansion, invasion, and migration of PC3-ML cells were monitored by IVIS® imaging (15, 20, 23). […] BLI imaging followed development of metastatic lesions in bone. […] To determine the effect of MDA-7/IL-24 on primary bone marrow in animals, cells from the bone cavity were isolated and treated with His-MDA-7 at different doses in vitro.
# bone marrow cells = experiment: Osteoclast differentiation of bone marrow cells isolated from treated PC3-ML tumor bearing animals (TRAP staining, TRACP assay); format: in vivo, mice; conditions: MDA-7/IL-24 protein 5 mg/kg, 6 doses; differentiation induced ex vivo
# Protocol: Osteoclast Formation Assays: Bone marrow cells were induced for osteoclast differentiation using previously described protocols (28). Briefly, bone marrow cells were cultured in minimal essential medium (α-MEM) with 10% fetal bovine serum with MCSF (10 ng/ml) for 24 hrs. They were subsequently treated with RANKL (100 ng/ml) for 5 days. Cultured cells were fixed and stained for TRAP (Tartarate-resistant acid phosphatase). TRAP staining was performed following the specific protocol provided with the kit (Sigma-Aldrich, Inc. St. Louis, Mo., USA). Multinucleated cells, considered as differentiated osteoclasts, were counted manually under bright field microscope. TRACP enzymatic assays were done as per the manufacturer's instructions (R & D, Minneapolis, Minn., USA).
# This was quantified by counting the number of osteoclasts (FIG. 2D) and also measuring TRACP osteoclastic enzymatic activity (FIG. 2E). These initial results indicated a potential function of MDA-7/IL-24 in regulating osteoclast differentiation.
# Suppression of osteoclast differentiation was also evaluated using an in vivo metastatic model (FIG. 4C). Bone marrow cells were isolated after sacrifice of mice and osteoclast differentiation was induced. […] This was evident by counting osteoclasts (FIG. 4C) and also by measuring TRACP osteoclastic enzymatic activity (FIG. 4D).
# [3] = system: Akt signaling (p-Akt, p-GSK3β, NFATc1, Mcl-1); experiment: Western blotting of Akt signaling cascade in RAW 264.7 cells; format: cell-based, mouse
# Source text: as §1
# MDA-7/IL-24 Regulates AKT Signaling in Mouse Macrophage cells: To determine whether MDA-7/IL-24 protein exerts any effect on Akt activation in our model system, RAW 264.7 cells were treated with MDA-7/IL-24 protein in the presence or absence of RANKL. It was observed that RANKL induces Akt activation in RAW 264.7 cells, and this activated Akt was suppressed by MDA-7/IL-24 protein (FIGS. 3A and 11A). […] The effect of Akt inhibition by a PI3K kinase inhibitor (LY294002) was also studied in the signaling cascade involving NFAT, Mcl-1, and Akt (FIGS. 3B and 11B).
# A constitutively active form of Akt (MYR-Akt) was also tested. Cells were transfected with MYR-Akt and treated with MDA-7/IL-24.
# [4] = listed as recombinant MDA-7/IL-24
molecule,measurement,setting,value
B1,Cell proliferation (MTT assay),PC3-ML cells [1],significant inhibition in cell proliferation
same,Cell proliferation (MTT assay),PC3-ML cells [1]; listed as MDA-7/IL-24,significantly impaired
same,"levels of p27, GRP78, and Beclin-1","p27, GRP78, and Beclin-1",Significant increases; also recorded: up-regulation of expression
same,bone metastasis (BLI signal / luciferase intensity),PC3-ML cells [2],significantly fewer metastatic lesions
same,bone metastasis (BLI signal / luciferase intensity),PC3-ML cells [2]; listed as MDA-7/IL-24,significantly less evidence of metastasis; also recorded: a significant decrease in metastasis; also recorded: significant inhibition in luciferase intensity
same,bone metastasis (BLI signal / luciferase intensity),PC3-ML cells [2]; [4],significantly less metastatic lesions in their femurs; also recorded: significantly reduced the occurrence of bone metastasis
same,survival,PC3-ML cells [2],enhancement of survival
same,survival,PC3-ML cells [2]; listed as MDA-7/IL-24,increased
same,toxicity in animals,PC3-ML cells [2],non-toxic
same,toxicity in animals,PC3-ML cells [2]; [4],without promoting toxicity
same,development of lung metastases,PC3-ML cells [2]; six doses of MDA-7/IL-24 protein 5 mg/kg,suppressed development of lung metastases
same,number of osteoclasts from bone marrow of treated animals,bone marrow cells,significantly fewer osteoclasts
same,osteoclastic activity of bone marrow from treated animals,bone marrow cells,less osteoclastic activity
same,RANKL-induced Akt activation,"[3]; MDA-7/IL-24 protein 10 μg/mL, RANKL 100 ng/mL",suppressed
same,"Phosphor-GSK3β, NFATc1, and Mcl-1 expression increased by constitutively active Akt",[3]; RAW 264.7 cells transfected with MYR-Akt,inhibited
same,Mcl-1 expression,"[3]; RAW 264.7 cells, MDA-7/IL-24 treatment",profoundly inhibited Mcl-1 expression
